The source of these data is PMC5623714, “Cofactor Tail Length Modulates Catalysis of Bacterial F420-Dependent Oxidoreductases” (Frontiers in Microbiology, 2017).

Data set [1] deals with T1, MSMEG_3380 (promiscuous F420H2-dependent reductase, FDOR-B) (Mycolicibacterium smegmatis, UniProt A0QXP8).
T1 construct: recombinant in E. coli BL21(DE3), Ni-NTA purified; dimer
Kind of data set: intrinsic tryptophan fluorescence quenching. It counts as binding. To be noted: read-out: F420 Kd. An excerpt:
intrinsic tryptophan fluorescence quenching on MSMEG_3380 (promiscuous F420H2-dependent reductase, FDOR-B)

In data set [2] the target is T2, MSMEG_2027 (F420H2-dependent quinone reductase, FDOR-A) (Mycolicibacterium smegmatis, UniProt A0QU01).
T2 construct: recombinant in E. coli BL21(DE3), Ni-NTA purified; monomer
T2 sequence (A0QU01 1-140): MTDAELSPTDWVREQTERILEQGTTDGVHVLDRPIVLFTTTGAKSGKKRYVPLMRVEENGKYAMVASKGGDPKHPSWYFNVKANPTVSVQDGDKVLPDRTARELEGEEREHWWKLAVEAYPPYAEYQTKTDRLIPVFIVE
Briefly: intrinsic tryptophan fluorescence quenching. It counts as binding. The note with it: read-out: F420 Kd. An excerpt: intrinsic tryptophan fluorescence quenching on MSMEG_2027 (F420H2-dependent quinone reductase, FDOR-A)

Data set [3] addresses T3, Fgd (F420-dependent glucose 6-phosphate dehydrogenase MSMEG_0777) (Mycolicibacterium smegmatis, UniProt A0QQJ4).
T3 construct: recombinant in E. coli BL21(DE3), Ni-NTA purified; LLHT family
T3 sequence (A0QQJ4 2-336): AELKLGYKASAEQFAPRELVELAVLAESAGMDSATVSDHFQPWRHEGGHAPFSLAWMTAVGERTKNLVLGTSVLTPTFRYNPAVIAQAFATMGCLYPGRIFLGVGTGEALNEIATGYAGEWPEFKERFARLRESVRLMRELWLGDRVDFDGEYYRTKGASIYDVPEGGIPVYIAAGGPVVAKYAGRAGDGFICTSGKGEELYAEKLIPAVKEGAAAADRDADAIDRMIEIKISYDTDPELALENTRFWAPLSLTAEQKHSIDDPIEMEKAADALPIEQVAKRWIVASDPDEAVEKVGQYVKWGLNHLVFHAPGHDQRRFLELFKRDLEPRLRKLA
Kind of data set: intrinsic tryptophan fluorescence quenching. It counts as binding. The text has this:
intrinsic tryptophan fluorescence quenching on Fgd (F420-dependent glucose 6-phosphate dehydrogenase MSMEG_0777)

Substrate in data set [4]: O=C1C=CCCC1
Kind of data set: purified protein. It counts as biochemical, Mycolicibacterium smegmatis. The note with it: 50 μM long-chain F420H2 (mycobacterial), 200 mM TrisHCl, 0.1% Triton X-100, pH 8.0.

Substrate in data set [5]: CC1=CC(=O)c2ccccc2C1=O
Kind of data set: purified protein. It counts as biochemical, Mycolicibacterium smegmatis. To be noted: 50 μM long-chain F420H2 (mycobacterial), 200 mM TrisHCl, 0.1% Triton X-100, pH 8.0.

Take `C[C@H](OP(=O)(O)OC[C@@H](O)[C@@H](O)[C@@H](O)Cn1c2nc(=O)[nH]c(=O)c-2cc2ccc(O)cc21)C(=O)N[C@@H](CCC(=O)N[C@@H](CCC(=O)O)C(=O)O)C(=O)O` [F420-2, short-chain F420]: the dissociation constant (Kd) in data set [1] was 0.57 ± 0.05 µM; in data set [2], 1.43 ± 0.12 µM; in data set [3], 4.18 ± 0.29 µM.

B1: MSMEG_3380 (promiscuous F420H2-dependent reductase, FDOR-B) (Mycolicibacterium smegmatis MC2 155) (protein)
chain: MVAVPEGYESLLERPLYGHLATVRPDGTPQVNAMWFAWDGEVLRFTHTTKRQKYRNIKANPAVAMSVIDPDNPYRYLEVRGLVEDIVPDPTGAFYLKLNDRYDGPLTEPPADKADRVIIVVRPTAFSKQ
notes: recombinant in E. coli BL21(DE3), Ni-NTA purified; dimer
In the case of B1, in data set [4], the Michaelis constant (Km) stood at 259 ± 41 µM, the kcat came to 0.025 ± 0.001 s⁻¹ and the catalytic efficiency (kcat/Km) is 96 M⁻¹ s⁻¹.

B2: MSMEG_2027 (F420H2-dependent quinone reductase, FDOR-A) (Mycolicibacterium smegmatis MC2 155) (protein)
chain: MTDAELSPTDWVREQTERILEQGTTDGVHVLDRPIVLFTTTGAKSGKKRYVPLMRVEENGKYAMVASKGGDPKHPSWYFNVKANPTVSVQDGDKVLPDRTARELEGEEREHWWKLAVEAYPPYAEYQTKTDRLIPVFIVE
notes: recombinant in E. coli BL21(DE3), Ni-NTA purified; monomer
As to B2, in data set [5], the Km was 25.6 ± 9.2 µM, the turnover number (kcat) was 0.084 ± 0.007 s⁻¹ and the kcat/Km was 3280 M⁻¹ s⁻¹.
